Consider 18 molecules from patent US20230357447A1 (JANUX THERAPEUTICS, published 2023).

For experiment [1], the target named is T1, Anti-CD28 scFv (VH-linker 1-VL) (biotinylated for capture on neutravidin plates). Kind of experiment: phage ELISA, scFv captured on plate. (In general: An ELISA detects its analyte on a solid surface through an enzyme-linked reagent.)
Description: (§1) Clonal phage were harvested as crude supernatants and screened via standard enzyme linked immunosorbent assays (ELISAs). […] Prior to the addition of clonal phage, wells were incubated with blocking buffer and CD28 soluble protein or blocking buffer alone. Without washing or aspirating, clonal phage supernatants were then added to the wells and incubated for a short time. Wells were then washed followed by detection of bound phage using a horse radish peroxidase conjugated anti-M13 antibody.
Experiment [2] deals with T1, Anti-CD28 scFv (VH-linker 1-VL). Kind of experiment: phage ELISA, scFv captured on plate, competitor soluble CD28.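 Also: crude clonal phage supernatants added to wells pre-incubated with soluble CD28 or with blocking buffer only as control, bound phage read out with HRP-linked anti-M13 antibody.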
Description: as §1

T1 sequence (scFv, as listed by the source): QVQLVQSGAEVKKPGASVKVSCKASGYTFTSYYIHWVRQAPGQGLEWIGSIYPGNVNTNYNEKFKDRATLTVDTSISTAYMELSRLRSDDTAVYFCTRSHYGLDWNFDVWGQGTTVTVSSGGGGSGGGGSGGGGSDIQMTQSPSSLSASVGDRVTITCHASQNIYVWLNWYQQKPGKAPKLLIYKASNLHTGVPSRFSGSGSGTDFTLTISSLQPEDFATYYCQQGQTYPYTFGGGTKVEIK

For MDWCPTDMWHHCFL [Phage-205], the “Phage binding ELISA CD28 scFv signal” value in experiment [1] was found to be 2.2. Besides, the “Phage binding ELISA CD28 scFv signal in presence of CD28” value in experiment [2] stood at 0.126.
Regarding MDWCPRNMWAQCFA [Phage-199], the “Phage binding ELISA CD28 scFv signal” value in experiment [1] came to 2.31. In experiment [2], the “Phage binding ELISA CD28 scFv signal in presence of CD28” value worked out at 0.209.
Regarding IHWCPINMWDKCYN [Phage-206], the “Phage binding ELISA CD28 scFv signal” value in experiment [1] is 2.08. Also, the “Phage binding ELISA CD28 scFv signal in presence of CD28” value in experiment [2] was found to be 0.203.
On to MFWCPFDMWHFCFN [Phage-200], for which the “Phage binding ELISA CD28 scFv signal” value in experiment [1] is 2.29. For the same molecule, in experiment [2], the “Phage binding ELISA CD28 scFv signal in presence of CD28” value is 0.469.
Taken in the same sequence, the figures for MDWCPRDMWDQCFD [Phage-201] were 2.29 and 0.119.
In the same order, the values of MFWCPMDMWDQCFN [Phage-202] are 2.26 and 0.207.
Turning to MDWCPRAMWDKCFF [Phage-212], the “Phage binding ELISA CD28 scFv signal” value in experiment [1] is 0.985. Besides, in experiment [2], the “Phage binding ELISA CD28 scFv signal in presence of CD28” value worked out at 0.094.
For the molecule MDWCPTYMWSECFN [Phage-214], the “Phage binding ELISA CD28 scFv signal” value in experiment [1] turned out to be 0.754. In addition, the “Phage binding ELISA CD28 scFv signal in presence of CD28” value in experiment [2] turned out to be 0.107.
On to IDWCPQDMWFYCFN [Phage-209], for which the “Phage binding ELISA CD28 scFv signal” value in experiment [1] stood at 1.42. For the same molecule, the “Phage binding ELISA CD28 scFv signal in presence of CD28” value in experiment [2] stood at 0.16.
Consider MDWCPTDMWIVCFA [Phage-208], for which the “Phage binding ELISA CD28 scFv signal” value in experiment [1] turned out to be 1.5. The “Phage binding ELISA CD28 scFv signal in presence of CD28” value in experiment [2] is 0.172.
For the molecule MDWCPRDMWFECFA [Phage-210], the “Phage binding ELISA CD28 scFv signal” value in experiment [1] came to 1.31. In addition, in experiment [2], the “Phage binding ELISA CD28 scFv signal in presence of CD28” value was determined as 0.143.
For MDWCPRYMWNECFN [Phage-215], the “Phage binding ELISA CD28 scFv signal” value in experiment [1] came to 0.687. Besides, the “Phage binding ELISA CD28 scFv signal in presence of CD28” value in experiment [2] stood at 0.128.
In the same order, the values of MSWCPRDMWFYCYA [Phage-203] are 2.25 and 0.174.
For MNWCPSYMWDQCFA [Phage-213], the “Phage binding ELISA CD28 scFv signal” value in experiment [1] turned out to be 0.854. Further, the “Phage binding ELISA CD28 scFv signal in presence of CD28” value in experiment [2] is 0.105.
In the case of MDWCPRAMWHECFY [Phage-207], in experiment [1], the “Phage binding ELISA CD28 scFv signal” value was 1.92. For the same molecule, the “Phage binding ELISA CD28 scFv signal in presence of CD28” value in experiment [2] is 0.129.
With MDWCPRHMWYECFF [Phage-197], in experiment [1], the “Phage binding ELISA CD28 scFv signal” value worked out at 2.34. In addition, the “Phage binding ELISA CD28 scFv signal in presence of CD28” value in experiment [2] was 0.298.
In the case of MDWCPMNMWYQCFN [Phage-216], the “Phage binding ELISA CD28 scFv signal” value in experiment [1] was 0.639. Further, the “Phage binding ELISA CD28 scFv signal in presence of CD28” value in experiment [2] turned out to be 0.137.
For the molecule MDWCPRAMWNHCFN [Phage-198], the “Phage binding ELISA CD28 scFv signal” value in experiment [1] amounted to 2.33. In addition, the “Phage binding ELISA CD28 scFv signal in presence of CD28” value in experiment [2] worked out at 0.426.
